According to patent US20100105141:

How the values were obtained:
Experiment in all cases: SPR
[1] = target: L7-1G06-B2 L55M,H64A,F67Y,F86M,H100C,R104G,P105F,K108Q,L113A,Q116S,L117M,L134M,S135Q,H139I,F140Y,E147L,H151L,L170V,I174L,F177K (synthetic) (UniProt P04483); conditions: ka 4.6e4 M-1 s-1, kd 1.9e-2 s-1
[2] = target: wt TetR(B) (Tn10, Gly inserted after Met1) (Escherichia coli) (UniProt P04483); conditions: ka 3.3e5 M-1 s-1, kd 3.0e-3 s-1; operator sequence used on chip not stated
[3] = tested on: L7-3E03-D1 (EsR4) L55M,H64A,F67Y,F86M,H100C,R104G,P105F,K108Q,L113A,Q116S,N129H,L131M,L134M,S135Q,V137A,H139I,F140Y,E147L,H151L,L170V,I174L,F177K (synthetic); conditions: ka 5.5e4 M-1 s-1, kd 1.1e-2 s-1
[4] = target: L7-1F08-A11 (L7-A11, EsR2) L55M,H64A,F67Y,F86M,H100C,R104G,P105F,K108Q,L113A,Q116S,L134M,S135Q,H139I,F140Y,E147L,H151L,L170V,I174L,F177K (synthetic) (UniProt P04483); conditions: ka 7.1e4 M-1 s-1, kd 1.7e-2 s-1
[5] = tested on: L7-1C03-A5 (EsR1) L55M,H64A,F67V,S85I,F86M,H100C,R104G,P105F,K108Q,L113A,Q116S,N129H,L134M,S135Q,V137A,H139I,E147L,H151L,L170V,I174L,F177N (synthetic); conditions: ka 4.7e4 M-1 s-1, kd 7.8e-3 s-1

tet operator (Biacore)
Kd [1]: 430 nM
Kd [2]: 9 nM
Kd [3]: 200 nM
Kd [4]: 250 nM
Kd [5]: 150 nM
